# Paper PMC13016609, “UV irradiation alters TFAM binding specificity and compaction of DNA”
# T1: TFAM (no MTS) (Homo sapiens, UniProt Q00059 43-246)
# T1 sequence: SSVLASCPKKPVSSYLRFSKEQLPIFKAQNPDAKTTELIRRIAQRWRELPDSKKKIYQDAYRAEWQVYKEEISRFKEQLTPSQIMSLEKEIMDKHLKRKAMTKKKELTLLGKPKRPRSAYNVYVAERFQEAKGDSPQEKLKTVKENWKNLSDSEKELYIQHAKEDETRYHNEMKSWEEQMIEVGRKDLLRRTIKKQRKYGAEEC
# What was measured:
# Conditions in all cases: protein: recombinant; label: 5' 6-FAM on strand 1; blunt
# [1] = biological target: T1, TFAM (no MTS); test: fluorescence anisotropy; Hill n 2.46±0.23; FP: 25 mM HEPES, 10 mM Mg(OAc)2, 25 mM NaOAc, 75 mM KOAc, pH 7.5, 1 nM DNA, TFAM 0-15 nM diluted on ice (read temperature not stated); AFM oligos: on ice, 2 min
# [2] = biological target: T1, TFAM (no MTS); test: fluorescence anisotropy; +UVC; Hill n 2.33±0.10; FP: 25 mM HEPES, 10 mM Mg(OAc)2, 25 mM NaOAc, 75 mM KOAc, pH 7.5, 1 nM DNA, TFAM 0-15 nM diluted on ice (read temperature not stated); AFM oligos: on ice, 2 min
# [3] = biological target: T1, TFAM (no MTS); test: fluorescence anisotropy; +UVC; Hill n 2.19±0.06; FP: 25 mM HEPES, 10 mM Mg(OAc)2, 25 mM NaOAc, 75 mM KOAc, pH 7.5, 1 nM DNA, TFAM 0-15 nM diluted on ice (read temperature not stated); AFM oligos: on ice, 2 min
# [4] = biological target: T1, TFAM (no MTS); test: fluorescence anisotropy; Hill n 2.07±0.07; FP: 25 mM HEPES, 10 mM Mg(OAc)2, 25 mM NaOAc, 75 mM KOAc, pH 7.5, 1 nM DNA, TFAM 0-15 nM diluted on ice (read temperature not stated); AFM oligos: on ice, 2 min
# [5] = biological target: T1, TFAM (no MTS); test: fluorescence anisotropy; +UVC; Hill n 2.12±0.28; FP: 25 mM HEPES, 10 mM Mg(OAc)2, 25 mM NaOAc, 75 mM KOAc, pH 7.5, 1 nM DNA, TFAM 0-15 nM diluted on ice (read temperature not stated); AFM oligos: on ice, 2 min
binder,measurement,setting,value
RNR2_619 (dsDNA) DNA 1: ATTGATCCAATAACTTGACCAACGGAACAAGTT DNA 2: AACTTGTTCCGTTGGTCAAGTTATTGGATCAAT,Kd,[1],4.89 ± 0.33 nM
"RNR2_619 +UVC (dsDNA, UVC 1500 J/m2 photolesions (positions undefined)) DNA 1: ATTGATCCAATAACTTGACCAACGGAACAAGTT DNA 2: AACTTGTTCCGTTGGTCAAGTTATTGGATCAAT",Kd,[2],8.13 ± 0.39 nM
"ND3_92 +UVC (dsDNA, UVC 1500 J/m2 photolesions (positions undefined)) DNA 1: TTAGTAGCTATTACCTTCTTATTATTTGATCTA DNA 2: TAGATCAAATAATAAGAAGGTAATAGCTACTAA",Kd,[3],5.54 ± 0.14 nM
COX1_27 (dsDNA) DNA 1: AAGACATTGGAACACTATACCTATTATTCGGCG DNA 2: CGCCGAATAATAGGTATAGTGTTCCAATGTCTT,Kd,[4],6.09 ± 0.43 nM
"COX1_27 +UVC (dsDNA, UVC 1500 J/m2 photolesions (positions undefined)) DNA 1: AAGACATTGGAACACTATACCTATTATTCGGCG DNA 2: CGCCGAATAATAGGTATAGTGTTCCAATGTCTT",Kd,[5],5.9 ± 0.1 nM
